Assay results from publication doi:10.1101/2024.07.10.602939 (bioRxiv, 2024).

B1: oxidized Get3 from Saccharomyces cerevisiae (natural protein, UniProt Q12154 1-354, looked up)
chain: MDLTVEPNLHSLITSTTHKWIFVGGKGGVGKTTSSCSIAIQMALSQPNKQFLLISTDPAHNLSDAFGEKFGKDARKVTGMNNLSCMEIDPSAALKDMNDMAVSRANNNGSDGQGDDLGSLLQGGALADLTGSIPGIDEALSFMEVMKHIKRQEQGEGETFDTVIFDTAPTGHTLRFLQLPNTLSKLLEKFGEITNKLGPMLNSFMGAGNVDISGKLNELKANVETIRQQFTDPDLTTFVCVCISEFLSLYETERLIQELISYDMDVNSIIVNQLLFAENDQEHNCKRCQARWKMQKKYLDQIDELYEDFHVVKMPLCAGEIRGLNNLTKFSQFLNKEYNPITDGKVIYELEDKE
modifications: oxidized cysteines (positions not given)
B2: reduced Get3 from Saccharomyces cerevisiae (natural protein, UniProt Q12154 1-354, looked up)
chain: B1 chain
B3: reduced TRC40 from Danio rerio (natural protein)
chain: not shown
B4: oxidized TRC40 from Danio rerio (natural protein)
chain: not shown
modifications: oxidized cysteines: intra- and intermolecular disulfide bonds (positions not given)

Target: the molecule itself
Assay: SEC

Protein | binding result | stoichiometry N
B1 | binds | 
B2 | binds | 
B3 |  | 2
B4 |  | ≥ 4
